This note sets out measurements from patent publication US20140057807A1 (UNIVERSITY OF CHICAGO, published 2014).

T1: human Abl SH2 domain (human, UniProt P00519 112-232, limits assumed)
T1 construct: domain: SH2 domain; poly-histidine tagged in selection; tag cleaved for SPR and crystals; also called Ab1SH2; SH2 domain of Abl kinase
T1 sequence (looked up): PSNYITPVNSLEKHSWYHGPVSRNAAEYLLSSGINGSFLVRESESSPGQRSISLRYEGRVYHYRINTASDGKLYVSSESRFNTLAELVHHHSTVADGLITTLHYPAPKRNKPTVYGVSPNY

B1: SEQ ID NO 39 (designed binder)
chain: VSSVPTKLEVVAATPTSLLISWDAPAVTVDFYVITYGETGSYGSYPQAFEVPGSKSTATISGLSPGVDYTITVYTESEGYISSSPISINYRT
B2: SEQ ID NO 32 (designed binder)
chain: VSSVPTKLEVVAATPTSLLISWDAPAVTVDLYFITYGETGGNSPVQEFTVPGSKSTATISGLSPGVDYTITVYAWYYGYYGPQYTSPISINYRT
B3: SEQ ID NO 42 (designed binder)
chain: VSSVPTKLEVVAATPTSLLISWDAPAVTVDYYVITYGETGGNSPVQEFEVPGSKSTATISGLSPGVDYTITVYATYGDAYWHYYYSPISINYRT
B4: SEQ ID NO 30 (designed binder)
chain: VSSVPTKLEVVAATPTSLLISWDAPAVTVDFYFITYGETGGNSPVQEFTVPGSKSTATISGLSPGVDYTITVYAWDNWDDYYYSPISINYRT
B5: SEQ ID NO 29 (designed binder)
chain: VSSVPTKLEVVAATPTSLLISWDAPAVTVVYYVITYGETGGNSPVQEFTVPGSKSTATISGLSPGVDYTITVYAWYTFQYDYYVTQSSPISINYRT
B6: SEQ ID NO 33 (designed binder)
chain: VSSVPTKLEVVAATPTSLLISWDAPAVTVDYYYITYGETGGNSPVQEFTVPGSKSTATISGLSPGVDYTITVYAWYQHDFDYHVWGSSPISINYRT
B7: SEQ ID NO 37 (designed binder)
chain: VSSVPTKLEVVAATPTSLLISWDAPAVTVVYYNITYGETGGNSPVQEFTVPGSKSTATISGLSPGVDYTITVYAWYEYGGYMEIDSPISINYRT
B8: SEQ ID NO 41 (designed binder)
chain: VSSVPTKLEVVAATPTSLLISWDAPAVTVDYYYITYGETGGNSPVQEFTVPGSKSTATISGLSPGVDYTITVYAWYWNDYYMSSMSPISINYRT
B9: SEQ ID NO 34 (designed binder)
chain: VSSVPTKLEVVAATPTSLLISWDAPAVTVHYYVITYGETGWWGPVQEFTVPGSKSTATISGLSPGVDYTITVYAYWKYSYKYSPISINYRT
B10: SEQ ID NO 35 (designed binder)
chain: VSSVPTKLEVVAATPTSLLISWDAPAVTVDYYVITYGETGAFGSGQEFEVPGSKSTATISGLSPGVDYTITVYAKWMYSYMYNPISINYRT
B11: SEQ ID NO 43 (designed binder)
chain: VSSVPTKLEVVAATPTSLLISWDAPAVTVVHYHITYGETGGNSPVQEFTVPGSKSTATISGLSPGVDYTITVYADWQYSYMYSPISINYRT
B12: SEQ ID NO 40 (designed binder)
chain: VSSVPTKLEVVAATPTSLLISWDAPAVYHYVYLITYGETGGNSPVQEFTVPGSKSTATISGLSPGVDYTITVYAKWKYSYQYSPISINYRT
B13: SEQ ID NO 28 (designed binder)
chain: VSSVPTKLEVVAATPTSLLISWDAPAVTVDHYVITYGETGGYPSPVQTFTVPGSKSTATISGLSPGVDYTITVYAWDYDWYAIGSPISINYRT
B14: SEQ ID NO 38 (designed binder)
chain: VSSVPTKLEVVAATPTSLLISWDAPAVTVDYYVITYGETGVPYYGWQEFEVPGSKSTATISGLSPGVDYTITVYAYPGSNWFYDWWSPISINYRT
B15: SEQ ID NO 36 (designed binder)
chain: VSSVPTKLEVVAATPTSLLISWDAPAVTVVYYFITYGETGGNSPVQEFTVPGSKSTATISGLSPGVDYTITVYAWSYELTGDYLQQFSPISINYRT
B16: SEQ ID NO 31 (designed binder)
chain: VSSVPTKLEVVAATPTSLLISWDAPAVTVVFYVITYGETGSYSGWQEFEVPGSKSTATISGLSPGVDYTITVYAYYYQNPESYYSPISINYRT
B17: SEQ ID NO 17 (designed binder)
chain: VSSVPTKLEVVAATPTSLLISWDAPAVTVDYYVITYGETGWYSPPQEFTVPGSKSTATISGLSPGVDYTITVYAWNWSAGLQSPISINYRT
B18: SEQ ID NO 12 (designed binder)
chain: VSSVPTKLEVVAATPTSLLISWDAPAVTVDHYNITYGETGAFWHYVQAFTVPGSKSTATISGLSPGVDYTITVYAEWDQYVVGSPISINYRT
B19: SEQ ID NO 13 (designed binder)
chain: VSSVPTKLEVVAATPTSLLISWDAPAVTVDYYVITYGETGGGYYSFQAFEVPGSKSTATISGLSPGVDYTITVYAFWPDDYYYGGSEYSPISINYRT
B20: SEQ ID NO 18 (designed binder)
chain: VSSVPTKLEVVAATPTSLLISWDAPAVTVDYYVITYGETGGNSPVQEFTVPGSKSTATISGLSPGVDYTITVYAWSWKYWYHGSPISINYRT
B21: SEQ ID NO 22 (designed binder)
chain: VSSVPTKLEVVAATPTSLLISWDAPAVTVDHYFITYGETGGSWSYYQEFAVPGSKSTATISGLSPGVDYTITVYAYSYEPYYYYNPISINYRT
B22: SEQ ID NO 20 (designed binder)
chain: VSSVPTKLEVVAATPTSLLISWDAPAVTVLYYVITYGETGGNSPVQEFTVPGSKSTATISGLSPGVDYTITVYATDYGPGYPYESPISINYRT
B23: SEQ ID NO 15 (designed binder)
chain: VSSVPTKLEVVAATPTSLLISWDAPAVTVDHYVITYGETGAHYYYFQEFEVPGSKSTATISGLSPGVDYTITVYAVSHGTDGNKLYFFSPISINYRT
B24: SEQ ID NO 14 (designed binder)
chain: VSSVPTKLEVVAATPTSLLISWDAPAVTVDHYHITYGETGGSWSGYQEFTVPGSKSTATISGLSPGVDYTITVYANSSWYWYNPISINYRT
B25: SEQ ID NO 19 (designed binder)
chain: VSSVPTKLEVVAATPTSLLISWDAPAVTVDFYIITYGETGGGYYSYQTFTVPGSKSTATISGLSPGVDYTITVYANEFGKSYPYTMNPISINYRT
B26: SEQ ID NO 21 (designed binder)
chain: VSSVPTKLEVVAATPTSLLISWDAPAVTVDLYHITYGETGGVWSGYQEFTVPGSKSTATISGLSPGVDYTITVYAVQHQEIWPYYYSPISINYRT
B27: SEQ ID NO 270 (designed binder)
chain: NVSPPRRARVTDATETTITISWRTKTETITAFYVHAVPMLWVVNGIQRTIKPDVRSYTITGLQPGTSYTINLETLRMSSHYYPVVIDAST
B28: SEQ ID NO 276 (designed binder)
chain: NVSPPRRARVTDATETTITISWRTKTETITLFYVYAYPRYYPGIQRTIKPDVRSYTITGLQPGTSYSIYLSTLWDTKGYPVVIDAST
B29: SEQ ID NO 271 (designed binder)
chain: NVSPPRRARVTDATETTITISWRTKTETITSFYVRALPVSAWPIQRTIKPDVRSYTITGLQPGTGYNIGLVTLYYGASYVPVVIDAST
B30: SEQ ID NO 269 (designed binder)
chain: NVSPPRRARVTDATETTITISWRTKTETITAFNVYASPEYWRYGYFRFIQRTIKPDVRSYTITGLQPGTGYYIYLYTLYHKYGYYPVVIDAST
B31: SEQ ID NO 277 (designed binder)
chain: NVSPPRRARVTDATETTITISWRTKTETITTFMVVAYPMFQYRIQRTIKPDVRSYTITGLQPGTSYTIYLQTLGYASWYPVVIDAST
B32: SEQ ID NO 275 (designed binder)
chain: NVSPPRRARVTDATETTITISWRTKTETITSFYVDAGPWYRPDAYEYIQRTIKPDVRSYTITGLQPGTGYSIQLYTLYAYAYLYPVVIDAST
B33: SEQ ID NO 273 (designed binder)
chain: NVSPPRRARVTDATETTITISWRTKTETITSFWVHAYPSGASGGIQRTIKPDVRSYTITGLQPGTNYGIALATLTHYYTYSPVVIDAST
B34: SEQ ID NO 274 (designed binder)
chain: NVSPPRRARVTDATETTITISWRTKTETITGFHVFASPWYSGSQSIQRTIKPDVRSYTITGLQPGTTYYIGLNTLYIPGHEPPVVIDAST
B35: SEQ ID NO 272 (designed binder)
chain: NVSPPRRARVTDATETTITISWRTKTETITAFYVGAHPWYNLEIQRTIKPDVRSYTITGLQPGTGYVISLYTLWHHNEAPVVIDAST

For one test, the target named is T1, human Abl SH2 domain. As to the kind of experiment: phage display selection hit, BL1 library.
With B1, the binding result is recorded as “binds”. The same measure, in the same setting: next, B2: “binds”; B3: “binds”.

For the molecule B4, the binding result is “binds”. Still for that read-out and setting: next, B5: “binds”; B6: “binds”; B7: “binds”. As to B8, the binding result is reported as “binds”. The same measure, in the same setting: next, B9: “binds”. In the case of B10, the binding result is given as “binds”. For the molecule B11, the binding result is on record as “binds”. On to B12, for which the binding result was “binds”.

Take B13: the binding result is given as “binds”.

For the molecule B14, the binding result is given as “binds”. Consider B15, for which the binding result was “binds”.

As to B16, the binding result is recorded as “binds”.

Another test addresses human ubiquitin (human, UniProt P0CG48 1-76). As to the kind of experiment: phage display selection hit, BL1 library.
B17: the binding result is “binds”. B18: the binding result is recorded as “binds”.

As to B19, the binding result is listed as “binds”. Take B20: the binding result is given as “binds”. Still for that read-out and setting: next, B21: “binds”; B22: “binds”; B23: “binds”. For the molecule B24, the binding result is recorded as “binds”. Same read-out and setting: next, B25: “binds”.

With B26, the binding result is reported as “binds”.

In a further test the target is T2, human serum albumin (human, UniProt P02768 25-609).
T2 construct: also called HSA
T2 sequence (P02768 25-609 limits assumed): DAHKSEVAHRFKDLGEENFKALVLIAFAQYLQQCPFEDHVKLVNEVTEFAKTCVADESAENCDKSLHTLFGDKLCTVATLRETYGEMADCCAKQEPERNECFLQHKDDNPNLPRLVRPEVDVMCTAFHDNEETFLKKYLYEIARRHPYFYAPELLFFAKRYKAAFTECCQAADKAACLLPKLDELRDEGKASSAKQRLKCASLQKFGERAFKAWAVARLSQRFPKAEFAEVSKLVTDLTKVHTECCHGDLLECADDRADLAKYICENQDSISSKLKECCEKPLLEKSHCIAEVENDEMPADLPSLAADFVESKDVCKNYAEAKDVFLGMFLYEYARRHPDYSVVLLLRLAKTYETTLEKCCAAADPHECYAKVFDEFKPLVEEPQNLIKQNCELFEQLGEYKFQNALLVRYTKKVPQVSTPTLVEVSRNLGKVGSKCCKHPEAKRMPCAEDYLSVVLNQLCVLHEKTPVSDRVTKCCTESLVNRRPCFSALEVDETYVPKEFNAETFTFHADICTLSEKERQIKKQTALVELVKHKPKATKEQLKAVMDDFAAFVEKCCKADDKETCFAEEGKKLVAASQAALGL
As to the kind of experiment: cradle library selection hit.
As for B27, the binding result is “binds”. Same read-out and setting: next, B28: “binds”; B29: “binds”; B30: “binds”. On the same count and under the same terms, next, B31: “binds”; B32: “binds”.

For B33, the binding result was “binds”. The same measure, in the same setting: next, B34: “binds”; B35: “binds”.
